# Read-outs that look alike come from different tables or passages of the source.
# B1: paired Ig-like receptor (PIR)–B (receptor)
# chain: SLPKPILRVQPDSVVSRRTKVTFLCEETIGANEYRLYKDGKLYKTVTKNKQKPENKAEFSFSNVDLSNAGQYRCSYSTQYKSSGYSDLLELVVTGHYWTPSLLAQASPVVTSGGYVTLQCESWHNDHKFILTVEGPQKLSWTQDSQYNYSTRKYHALFSVGPVTPNQRWICRCYSYDRNRPYVWSPPSESVELLVSGNLQKPTIKAEPGSVITSKRAMTIWCQGNLDAEVYFLHNEKSQKTQSTQTLQEPGNKGKFFIPSVTLQHAGQYRCYCYGSAGWSQPSDTLELVVTGIYEYYEPRLSVLPSPVVTAGGNMTLHCASDFPYDKFILTKEDKKFGNSLDTEHISSSGQYRALFIIGPTTPTHTGAFRCYGYYKNAPQLWSVPSALQQILISGLSKKPSLLTHQGHILDPGMTLTLQCFSDINYDRFALHKVGGADIMQHSSQQTDTGFSVANFTLGYVSSSTGGQYRCYGAHNLSSEWSASSEPLDILITGQLPLTPSLSVQPNHTVHSGETVSLLCWSMDSVDTFILSKEGSAQQPLRLKSKSHDQQSQAEFSMSAVTSHLSGTYRCYGAQDSSFYLLSSASAPVELTVSGPIETSTPPPTMSMPLGGLHMYLKALIGVSVAFILFLFIFIFILLRRRHRGKFRKDVQKEKDLQLSSGAEEPITRKGELQKRPNPAAATQEESLYASVEDMQTEDGVELNSWTPPEEDPQGETYAQVKPSRLRKAGHVSPSVMSREQLNTEYEQAEEGQGANNQAAESGESQDVTYAQLCSRTLRQGAAASPLSQAGEAPEEPSVYATLAAARPEAVPKDMEQ
# modifications: tyrosine-phosphorylated, constitutively and after IgE stimulation (residues not given)
# Tests used:
# Assay in all cases: FRET or BRET
# [1] = biological target: HLA-A, B, C (human (endogenous in KU812))
# [2] = biological target: H-2K^b/D^b (mouse (endogenous in BMMCs))
# [3] = biological target: H-2K^b/D^b (mouse (endogenous in BMMCs)); remark: listed apart in the source
Molecule,FRET efficiency (%) [1],further results
"β2-microglobulin (β2m), human (from UniProt P61769 21-119) (natural protein)",14.5%,
"β2-microglobulin (β2m), mouse (from UniProt P01887 21-119) (natural protein)",,FRET efficiency (%) [2]: 8%
leukocyte immunoglobulin (Ig)-like receptor (LILR) B2 (from UniProt Q8N423 22-597),20.7%,
B1,,FRET efficiency (%) [3]: 13.5%

# From PMC2118540
